Data taken from US20250250335A1 (SHENGHE CHINA BIOPHARMACEUTICAL, published 2025).
Where two headings read alike, the source gives them in different places.

B1: NEO-201 antibody (msIgG2a subtype) (antibody, V domains shown)
VH: QVQLVQSGAEVKKPGASVKVSCKASGYTFTDYAMHWVRQAPGQRLEWMGLISTYSGDTKYNQNFQGRVTMTVDKSASTAYMELSSLRSEDTAVYYCARGDYSGSRYWFAYWGQGTLVTVSS
VL: DIQMTQSPSSLSASVGDRVTITCQASENIYGALNWYQRKPGKSPKLLIYGASNLATGMPSRFSGSGSGTDYTFTISSLQPEDIATYYCQQVLSSPYTFGGGTKLEIKR
B2: Antibody 1 (antibody, V domains shown)
VH: QVQLKQSGAELVRPGASVKLSCKTSGYIFTSYWIHWVKQRSGQGLEWIARIYPGTGSTYYNEKFKGKATLTADKSSSTAYMQLSSLKSEDSAVYFCARSGFPLTTVPLDYWGQGTTLTVSS
VL: DVQITQSPSYLAASPGETITINCRASKSISKYLAWYQEKPGKTNKLLIYSGSTLQSGIPSRFSGSGSGTDFTLTISSLEPEDFAMYYCQQHNEYPFTFGSGTKLEIK
notes: Mouse-derived hybridoma antibody; also called mouse-derived antibody 1

Tests used:
[1] = biological target: T1, human CEACAM5-his (ACRO CE5-H5226) (human, UniProt P06731 35-685); assay: ELISA on coated human CEACAM5, OD450
T1 construct: Bought protein; not shown: His tag
T1 sequence (looked up): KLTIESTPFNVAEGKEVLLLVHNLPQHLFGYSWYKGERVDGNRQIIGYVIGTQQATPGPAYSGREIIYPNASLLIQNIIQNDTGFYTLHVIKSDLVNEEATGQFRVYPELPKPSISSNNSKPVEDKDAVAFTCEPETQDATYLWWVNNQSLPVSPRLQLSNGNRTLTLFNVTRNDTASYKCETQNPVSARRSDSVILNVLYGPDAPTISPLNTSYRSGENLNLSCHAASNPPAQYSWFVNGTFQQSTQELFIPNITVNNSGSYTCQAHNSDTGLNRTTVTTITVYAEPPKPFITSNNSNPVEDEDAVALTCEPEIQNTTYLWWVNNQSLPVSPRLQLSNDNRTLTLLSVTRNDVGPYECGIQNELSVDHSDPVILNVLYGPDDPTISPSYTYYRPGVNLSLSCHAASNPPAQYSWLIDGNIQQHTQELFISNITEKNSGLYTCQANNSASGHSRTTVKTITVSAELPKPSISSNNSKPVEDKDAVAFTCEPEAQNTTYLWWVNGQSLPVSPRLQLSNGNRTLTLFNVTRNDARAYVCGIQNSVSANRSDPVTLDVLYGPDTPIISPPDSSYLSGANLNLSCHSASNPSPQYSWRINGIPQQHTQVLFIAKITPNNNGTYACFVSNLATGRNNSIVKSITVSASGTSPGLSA
Method: (§1) The binding activity of the antibodies to human CEACAM5, human CEACAM6, and human CEACAM6 (AB) proteins was detected by ELISA. The plate coated with proteins was incubated at 4° C. overnight, and the 96-well ELISA plate blocked with 2% PBS-BSA was added with the antibody to be detected and incubated at 37° C. for 1 h. After washing 3 times with PBS containing 0.05% Tween, the absorbance value of each well was read at wavelength 450 nm with the gradient-diluted mouse-derived candidate antibody as the primary antibody and anti-mouse-IgG-FC-HRP as the secondary antibody, and the absorbance value of each well was read at wavelength 450 nm after the TMB color development.

[2] = biological target: T1, human CEACAM5-his (ACRO CE5-H5226); assay: ELISA on coated human CEACAM5, OD450; remark: listed apart in the source
Procedure, shortened: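 Plates coated overnight at 4 °C with antigen and blocked with 2% BSA in PBS received gradient-diluted mouse candidate antibodies for 1 h at 37 °C. Binding was detected with anti-mouse IgG Fc-HRP and TMB, read as OD450.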

[3] = biological target: T1, human CEACAM5-his (ACRO CE5-H5226); assay: SPR (Biacore), antibody captured on CM5 chip, antigen as analyte, 1:1 model
Method: The CM5 sensor chip was activated at a flow rate of 10 μL/min for 420 seconds. The channel was then injected with 30 μg/mL of anti-rat Fc IgG in 10 mM NaAc (pH 4.5) at a flow rate of 10 μL/min. The chip was inactivated with 1 M ethanolamine-hydrochloric acid (GE) for 420 seconds at a flow rate of 10 μL/min.
Candidate antibodies in running buffer 1×HBS-EP+ (10 mM HEPES, 150 mM NaCl, 3 mM EDTA, 0.05% Tween 20, pH 7.4) were captured onto Fc2 with anti-rat Fc IgG at a flow rate of 10 μL/min. The 10 nM human CEACAM5-his protein or CEACAM-6-his or CEACAM6 (AB)-his protein and running buffer were sequentially injected into Fc1-Fc2 at a flow rate of […], bound for 180 seconds, and then dissociated for 3600 seconds. 10 mM glycine (pH 1.5) was injected as regeneration buffer after each dissociation.
Result plots for the reference channel Fc1 and the buffer channel were subtracted from the test result plots. The experimental data fit the 1:1 binding model. The molecular weight of 110 KDa was used to calculate the molar concentration of CEACAM5 protein, 55 KDa for human CEACAM6-his, and 55 KDa for human CEACAM6 (AB)-his.

[4] = biological target: T2, CEACAM5 on the surface of the tumor cells (HPAFII cells) (UniProt P06731 35-685); assay: flow cytometry on HPAFII cells (Mean-FITC); the cells carry CEACAM5 and CEACAM6, signal not divided between the two
T2 construct: whole, on cells
T2 sequence (looked up): T1 sequence (looked up)
Method: (§2) The antibody to be tested was taken as the initial concentration of 200 nM and diluted 5-fold with 6 gradients. The HPAFII cells (From USTC […] FOR ADVANCED STUDIES) in the incubator were taken out, and the cell suspension was transferred to a 15 mL centrifuge tube, centrifuged, and counted by resuspension in PBS. A blank control group (Blank), a negative control group (NC), an experimental group, a positive control group and the irrelevant antibody group were kept. […] The cell suspension was spread in a 96-well plate according to about 3×10⁵ cells/well. Centrifugation (1000 rpm, 5 min) was performed, followed by washing with PBS, re-centrifugation, and repeated twice to remove media residues. The supernatant was discarded, 100 μL of primary antibody solution and irrelevant antibody solution were added to the experimental group and irrelevant antibody group, respectively, and the cells were resuspended and incubated at room temperature for 1 h. The blank group, and the negative control group were incubated with an equal amount of PBS.
(§3) After 1 h, PBS was added to wash twice. After the supernatant was discarded, 100 μL of fluorescent secondary antibody dilution (Mouse-derived secondary antibody from Abcam ab6785) was added to each sample group, except for the blank group which was added with 100 μL of PBS. After incubation at room temperature and protected from light for 0.5 h, centrifugation was performed and PBS added to wash the samples twice. After the supernatant was discarded, 120 μL of PBS was added to resuspend and sequentially flow cytometry was performed to detect the mean fluorescence intensity. The concentration of the antibody was logarithmically taken as the horizontal coordinate, and the Sigmoidaldose-response (VariableSlope) method (GraphPadPrism Software, GraphPadSoftware, San Diego, California) was chosen to perform a nonlinear regression to obtain the binding activity curves of the antibody on HPAFII cells.

[5] = biological target: T2, CEACAM5 on the surface of the tumor …; assay: as above; remark: listed apart in the source
Method: as §2, §3

[6] = biological target: T2, CEACAM5 on the surface of the tumor …; assay: as above; remark: listed apart in the source
Method: as §2, §3

[7] = biological target: T2, CEACAM5 on the surface of the tumor …; assay: as above; remark: listed apart in the source
Method: as §2
After 1 h, PBS was added to wash twice. […] After the supernatant was discarded, 120 μL of PBS was added to resuspend and sequentially flow cytometry was performed to detect the mean fluorescence intensity. […]

[8] = biological target: T3, mouse CEACAM5 (mouse, UniProt Q3UKK2 35-947, limits assumed); assay: ELISA on coated protein, OD450
T3 sequence (looked up): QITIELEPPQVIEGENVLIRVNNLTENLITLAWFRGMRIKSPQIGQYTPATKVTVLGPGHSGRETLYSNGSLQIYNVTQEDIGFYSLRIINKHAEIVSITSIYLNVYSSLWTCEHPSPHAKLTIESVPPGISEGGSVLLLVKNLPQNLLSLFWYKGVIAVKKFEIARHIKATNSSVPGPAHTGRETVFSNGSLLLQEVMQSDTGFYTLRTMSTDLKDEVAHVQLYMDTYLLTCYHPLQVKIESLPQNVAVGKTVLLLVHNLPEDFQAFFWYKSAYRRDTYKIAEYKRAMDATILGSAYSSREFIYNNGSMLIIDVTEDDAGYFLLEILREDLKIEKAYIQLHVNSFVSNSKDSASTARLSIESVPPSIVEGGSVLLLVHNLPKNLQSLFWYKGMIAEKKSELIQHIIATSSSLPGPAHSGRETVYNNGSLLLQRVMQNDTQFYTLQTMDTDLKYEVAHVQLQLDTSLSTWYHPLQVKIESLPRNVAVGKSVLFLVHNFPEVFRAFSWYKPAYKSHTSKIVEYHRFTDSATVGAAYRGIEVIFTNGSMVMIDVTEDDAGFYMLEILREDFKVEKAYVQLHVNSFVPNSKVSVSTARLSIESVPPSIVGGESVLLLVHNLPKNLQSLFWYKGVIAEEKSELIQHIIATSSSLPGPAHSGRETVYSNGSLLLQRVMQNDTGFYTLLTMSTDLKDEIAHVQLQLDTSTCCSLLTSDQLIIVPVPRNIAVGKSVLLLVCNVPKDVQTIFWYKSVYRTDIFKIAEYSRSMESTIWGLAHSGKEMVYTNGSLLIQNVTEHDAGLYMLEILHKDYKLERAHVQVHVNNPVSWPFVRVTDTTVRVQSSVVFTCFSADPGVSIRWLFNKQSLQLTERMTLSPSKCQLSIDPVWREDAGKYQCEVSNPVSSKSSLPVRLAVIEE
Procedure, shortened: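 Plates coated overnight at 4 °C with mouse CEACAM5 protein, blocked with 2% BSA in PBS, then incubated with test antibody 1 h at 37 °C. Binding detected with HRP-conjugated goat anti-mouse IgG-Fc and TMB, absorbance read at 450 nm.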

[9] = biological target: T4, human CEACAM6-his (ACRO CE6-H5223) (human, UniProt P40199 35-320); assay: ELISA on coated human CEACAM6, OD450
T4 construct: Bought protein; not shown: His tag
T4 sequence (looked up): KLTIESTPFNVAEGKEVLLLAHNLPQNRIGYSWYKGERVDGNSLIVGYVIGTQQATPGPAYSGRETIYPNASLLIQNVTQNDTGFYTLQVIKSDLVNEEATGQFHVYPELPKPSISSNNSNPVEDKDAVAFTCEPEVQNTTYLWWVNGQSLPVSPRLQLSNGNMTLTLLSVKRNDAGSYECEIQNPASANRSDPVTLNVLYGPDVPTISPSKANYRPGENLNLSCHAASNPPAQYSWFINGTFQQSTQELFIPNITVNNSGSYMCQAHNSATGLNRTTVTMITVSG
Method: as §1

[10] = biological target: T5, CEACAM6 on the surface of the tumor cells (HPAFII cells) (UniProt P40199 35-320); assay: flow cytometry on HPAFII cells (Mean-FITC); the cells carry CEACAM5 and CEACAM6, signal not divided between the two
T5 construct: whole, on cells
T5 sequence (looked up): T4 sequence (looked up)
Method: as §2, §3

Row | EC50 (read off the curve) [1] | EC50 (read off the curve) [2] | Kd [3] | EC50 (read off the curve) [4] | EC50 (read off the curve) [5] | EC50 (read off the curve) [6] | EC50 (read off the curve) [7] | OD [8] | binding result [9] | binding result [10] | Binder
1 | ~0.004 µg/mL | ~0.004 µg/mL | 5.05 nM | ~3 nM | ~3 nM | ~2 nM | ~0.6 µg/mL | – | – | – | B1
2 | ~0.04 µg/mL | – | – | – | – | – | – | 0.16 OD | binds | binds | B2
